The Immune Epitope Database (IEDB)

What was measured:
Assay in all cases: IEDB peptide-MHC binding, purified MHC/competitive/radioactivity; filed as Kd, often an IC50 or EC50 that approximates it; ≥ and ≤ were set here for values at or beyond the usual limits of such assays
HLA-A*03:01 = biological target: HLA-A*03:01
HLA-A*11:01 = biological target: HLA-A*11:01
HLA-A*31:01 = biological target: HLA-A*31:01
HLA-A*33:01 = biological target: HLA-A*33:01
HLA-A*68:01 = biological target: HLA-A*68:01
[1] = source organism: Vaccinia virus WR
[2] = source organism: Dengue virus 1 Brazil/97-11/1997
[3] = source organism: SARS coronavirus Tor2
[4] = source organism: Dengue virus 4 Philippines/H241/1956
[5] = source organism: Mammarenavirus guanaritoense
[6] = source organism: Dengue virus 2 Jamaica/1409/1983
[7] = source organism: Dengue virus 3 Martinique/1243/1999
[8] = source organism: Mammarenavirus juninense
[9] = source organism: Vaccinia virus Copenhagen
[10] = source organism: Lymphocytic choriomeningitis virus (strain Armstrong)

## IQTSVNTVVR
HLA-A*03:01; [1]
  Kd: ≥ 39700 nM
HLA-A*11:01; [1]
  Kd: 14200 nM
HLA-A*31:01; [1]
  Kd: 363 nM
HLA-A*33:01; [1]
  Kd: ≥ 29900 nM
HLA-A*68:01; [1]
  Kd: 1430 nM

## ITANPIVTDK
HLA-A*11:01; [2]
  Kd: 83 nM
HLA-A*68:01; [2]
  Kd: 40.5 nM

## ITDMINASLK
HLA-A*03:01; [1]
  Kd: 151 nM
HLA-A*11:01; [1]
  Kd: 81.2 nM
HLA-A*31:01; [1]
  Kd: 10600 nM
HLA-A*33:01; [1]
  Kd: ≥ 27300 nM
HLA-A*68:01; [1]
  Kd: 76.3 nM

## ITTDDLVKSY
HLA-A*03:01; [1]
  Kd: ≥ 70100 nM
HLA-A*11:01; [1]
  Kd: 11000 nM
HLA-A*31:01; [1]
  Kd: ≥ 70000 nM
HLA-A*33:01; [1]
  Kd: ≥ 70000 nM
HLA-A*68:01; [1]
  Kd: 1020 nM

## KFGKNHIHR
HLA-A*03:01; [1]
  Kd: 12300 nM
HLA-A*11:01; [1]
  Kd: ≥ 35800 nM
HLA-A*31:01; [1]
  Kd: 4.47 nM
HLA-A*33:01; [1]
  Kd: 5310 nM
HLA-A*68:01; [1]
  Kd: ≥ 49100 nM

## KFTILEYLY
HLA-A*03:01; [1]
  Kd: 7090 nM
HLA-A*11:01; [1]
  Kd: 2180 nM
HLA-A*31:01; [1]
  Kd: 1030 nM
HLA-A*33:01; [1]
  Kd: 9060 nM
HLA-A*68:01; [1]
  Kd: 808 nM

## KFVFPLNSK
HLA-A*03:01; [3]
  Kd: 170 nM
HLA-A*11:01; [3]
  Kd: 1270 nM
HLA-A*31:01; [3]
  Kd: 74.4 nM
HLA-A*33:01; [3]
  Kd: ≥ 53600 nM
HLA-A*68:01; [3]
  Kd: 8650 nM

## KILDAVVAQE
HLA-A*03:01; source organism: Homo sapiens
  Kd: 847 nM

## KIVNGVLSR
HLA-A*03:01; [1]
  Kd: 328 nM
HLA-A*11:01; [1]
  Kd: 89.2 nM
HLA-A*31:01; [1]
  Kd: 1400 nM
HLA-A*33:01; [1]
  Kd: 7030 nM
HLA-A*68:01; [1]
  Kd: 2050 nM

## KLRPKWLDAR
HLA-A*31:01; [4]
  Kd: 2.11 nM

## KSDNIINIGY
HLA-A*03:01; [1]
  Kd: 106 nM
HLA-A*11:01; [1]
  Kd: 142 nM
HLA-A*31:01; [1]
  Kd: 3870 nM
HLA-A*33:01; [1]
  Kd: ≥ 48600 nM
HLA-A*68:01; [1]
  Kd: 2930 nM

## KSKSFNHVLK
HLA-A*03:01; [3]
  Kd: 1.73 nM
HLA-A*11:01; [3]
  Kd: 21.6 nM
HLA-A*31:01; [3]
  Kd: 6.54 nM
HLA-A*33:01; [3]
  Kd: ≥ 70000 nM
HLA-A*68:01; [3]
  Kd: 3660 nM

## KTAVNMLTH
HLA-A*03:01; [5]
  Kd: 10.1 nM
HLA-A*11:01; [5]
  Kd: 216 nM
HLA-A*31:01; [5]
  Kd: 45.3 nM
HLA-A*33:01; [5]
  Kd: ≥ 77700 nM
HLA-A*68:01; [5]
  Kd: ≥ 44800 nM

## KTVQFCDAMR
HLA-A*03:01; [3]
  Kd: 1790 nM
HLA-A*11:01; [3]
  Kd: 267 nM
HLA-A*31:01; [3]
  Kd: 8.65 nM
HLA-A*33:01; [3]
  Kd: 1530 nM
HLA-A*68:01; [3]
  Kd: 90.1 nM

## KVNSTLEQY
HLA-A*03:01; [3]
  Kd: 58.8 nM
HLA-A*11:01; [3]
  Kd: 445 nM
HLA-A*31:01; [3]
  Kd: 2590 nM
HLA-A*33:01; [3]
  Kd: ≥ 50400 nM
HLA-A*68:01; [3]
  Kd: 955 nM

## KVVQHENLK
HLA-A*03:01; source organism: Dengue virus 3 Singapore/8120/1995
  Kd: 49 nM

## KWLKECGVDR
HLA-A*31:01; [4]
  Kd: 364 nM

## LGMMVLKIVR
HLA-A*33:01; [6]
  Kd: 1910 nM

## LIGANYLGK
HLA-A*31:01; [3]
  Kd: 8930 nM
HLA-A*33:01; [3]
  Kd: ≥ 77700 nM
HLA-A*68:01; [3]
  Kd: 10900 nM

## LIKFISDNKK
HLA-A*03:01; [1]
  Kd: 142 nM
HLA-A*11:01; [1]
  Kd: 1010 nM
HLA-A*31:01; [1]
  Kd: 42.4 nM
HLA-A*33:01; [1]
  Kd: ≥ 10000 nM
HLA-A*68:01; [1]
  Kd: 47.2 nM

## LLRHYYNKR
HLA-A*03:01; [1]
  Kd: 3020 nM
HLA-A*11:01; [1]
  Kd: 833 nM
HLA-A*31:01; [1]
  Kd: 1.68 nM
HLA-A*33:01; [1]
  Kd: 51.3 nM
HLA-A*68:01; [1]
  Kd: 2520 nM

## LLVWHTWQK
HLA-A*03:01; [7]
  Kd: 59 nM

## LSSRATWAK
HLA-A*11:01; [4]
  Kd: 56.5 nM

## LTILDDNLY
HLA-A*03:01; [1]
  Kd: 11200 nM
HLA-A*11:01; [1]
  Kd: 3240 nM
HLA-A*31:01; [1]
  Kd: ≥ 31700 nM
HLA-A*33:01; [1]
  Kd: ≥ 69500 nM
HLA-A*68:01; [1]
  Kd: 376 nM

## LVLLILMTAR
HLA-A*03:01; [3]
  Kd: 3780 nM
HLA-A*11:01; [3]
  Kd: 8740 nM
HLA-A*31:01; [3]
  Kd: 918 nM
HLA-A*33:01; [3]
  Kd: 5500 nM
HLA-A*68:01; [3]
  Kd: 6750 nM

## MFEATARGAR
HLA-A*33:01; [2]
  Kd: 22.3 nM

## MTLVPVLEK
HLA-A*03:01; [1]
  Kd: 25.3 nM
HLA-A*11:01; [1]
  Kd: 6.66 nM
HLA-A*31:01; [1]
  Kd: 97.4 nM
HLA-A*33:01; [1]
  Kd: 1330 nM
HLA-A*68:01; [1]
  Kd: 5.78 nM

## MVDELVTRK
HLA-A*03:01; [1]
  Kd: 68.9 nM
HLA-A*11:01; [1]
  Kd: 161 nM
HLA-A*31:01; [1]
  Kd: 3950 nM
HLA-A*33:01; [1]
  Kd: 2030 nM
HLA-A*68:01; [1]
  Kd: 793 nM

## MVGLFSNNPH
HLA-A*03:01; [8]
  Kd: ≥ 30200 nM
HLA-A*11:01; [8]
  Kd: 5960 nM
HLA-A*31:01; [8]
  Kd: 106 nM
HLA-A*33:01; [8]
  Kd: 398 nM
HLA-A*68:01; [8]
  Kd: 50 nM

## MVLLIPEPEK
HLA-A*11:01; [7]
  Kd: 115 nM

## NILGGVLHTK
HLA-A*03:01; [1]
  Kd: 39 nM
HLA-A*11:01; [1]
  Kd: 36.8 nM
HLA-A*31:01; [1]
  Kd: 1820 nM
HLA-A*33:01; [1]
  Kd: 1370 nM
HLA-A*68:01; [1]
  Kd: 19.9 nM

## NKQYIHCFRK
HLA-A*03:01; [8]
  Kd: 973 nM
HLA-A*11:01; [8]
  Kd: 652 nM
HLA-A*31:01; [8]
  Kd: 128 nM
HLA-A*33:01; [8]
  Kd: 17500 nM
HLA-A*68:01; [8]
  Kd: 1500 nM

## NMLKRVRNR
HLA-A*33:01; [7]
  Kd: 109 nM

## NMLSIINKR
HLA-A*31:01; [7]
  Kd: 42.1 nM
HLA-A*33:01; [7]
  Kd: 23 nM

## NMRDLIVTFR
HLA-A*03:01; [1]
  Kd: 10500 nM
HLA-A*11:01; [1]
  Kd: 14800 nM
HLA-A*31:01; [1]
  Kd: 1.14 nM
HLA-A*33:01; [1]
  Kd: 0.566 nM
HLA-A*68:01; [1]
  Kd: 11.5 nM

## NQVIVNNLDK
HLA-A*03:01; [3]
  Kd: ≥ 28900 nM
HLA-A*11:01; [3]
  Kd: 13300 nM
HLA-A*31:01; [3]
  Kd: ≥ 40700 nM
HLA-A*33:01; [3]
  Kd: ≥ 70000 nM
HLA-A*68:01; [3]
  Kd: 13400 nM

## NTIVFGIYK
HLA-A*03:01; [9]
  Kd: ≥ 28900 nM
HLA-A*11:01; [9]
  Kd: 1080 nM
HLA-A*31:01; [9]
  Kd: ≥ 33400 nM
HLA-A*33:01; [9]
  Kd: ≥ 77700 nM
HLA-A*68:01; [9]
  Kd: 1110 nM

## NVTEVKGYTK
HLA-A*68:01; [4]
  Kd: 40.6 nM

## PFKVINLPK
HLA-A*03:01; [1]
  Kd: 9490 nM
HLA-A*11:01; [1]
  Kd: 665 nM
HLA-A*31:01; [1]
  Kd: 6360 nM
HLA-A*33:01; [1]
  Kd: ≥ 77700 nM
HLA-A*68:01; [1]
  Kd: 15500 nM

## QVAINQVRR
HLA-A*68:01; [2]
  Kd: 104 nM

## RAGRVIDPR
HLA-A*31:01; [4]
  Kd: 29.1 nM

## RLCTREEFTK
HLA-A*03:01; [7]
  Kd: 76.6 nM

## TAIFLTTLSR
HLA-A*11:01; [6]
  Kd: 298 nM
HLA-A*68:01; [6]
  Kd: 2.83 nM

## TFTNDSIISH
HLA-A*03:01; [10]
  Kd: ≥ 47000 nM
HLA-A*31:01; [10]
  Kd: ≥ 64700 nM
HLA-A*33:01; [10]
  Kd: 8720 nM
HLA-A*68:01; [10]
  Kd: 6850 nM

## TTETPTWNR
HLA-A*33:01; [7]
  Kd: 1.28 nM
HLA-A*68:01; [7]
  Kd: 14.5 nM

## VFKEKVDTR
HLA-A*33:01; [7]
  Kd: 63.1 nM

## VTLFFLSGK
HLA-A*03:01; [2]
  Kd: 3.82 nM
HLA-A*11:01; [2]
  Kd: 12.4 nM

## YMIGQTGIQR
HLA-A*33:01; [4]
  Kd: 79.2 nM
HLA-A*68:01; [4]
  Kd: 98.3 nM

## YMTSMKRFK
HLA-A*03:01; [2]
  Kd: 897 nM

## YMWQVKTQR
HLA-A*31:01; [4]
  Kd: 1.41 nM
HLA-A*33:01; [4]
  Kd: 1.3 nM
